# Results: the supplement of paper PMC10567573
# ± gives the standard deviation.
# Test: protein stability index of a GFP-peptide fusion (GPS, HEK-293T) (PSI 1-6); higher = more stable
# [1] = treatment: DMSO, c terminus: a fixed tail appended
# [2] = treatment: MLN4924 1 uM, 8 h, c terminus: a fixed tail appended
# [3] = treatment: DMSO, c terminus: native
# [4] = treatment: MLN4924 1 uM, 8 h, c terminus: native
# 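Also: 24-mer peptide tiles fused after GFP, lentivirally expressed, FACS-sorted into six equal bins by GFP/DsRed ratio, decoded by Illumina sequencing, PSI is the read-weighted mean bin number.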
Sequence,protein stability index [1],protein stability index [2],protein stability index [3],protein stability index [4]
VIKISYSTPQGKGEVVKIPSRVHG [PWWP2B],2.5 ± 0.2,2.79 ± 0.3,,
HTDSKYEHAIAEAQKNMYFKTRLK [ZNF396],3.8 ± 0.22,3.5 ± 0.32,,
IISSDELNVRSEEQVFNAVMAWVK [KLHL20],2.28 ± 0.22,2.42 ± 0.32,,
ASALRTRMTGGRPPLPPPDDPATL [DYRK1B],4.65 ± 0.13,4.87 ± 0.23,,
HAAQGGPLLCPGCQGQPQGKAVVS [ELOA2],3.9 ± 0.36,4.09 ± 0.24,,
KSNQPKSLEDLIFESLPENASHKL [ATE1],4.28 ± 0.21,4.5 ± 0.14,,
HSEGRVEVYYDGQWGTVCDDDFSI [LOXL2],3.23 ± 0.33,3.56 ± 0.33,,
TYAVRKLDNTKFRSHEGETAYIRV [SRSF1],2.46 ± 0.39,2.38 ± 0.3,,
FVAFALCMFCLYSFMPLVIKVTSA [SLC35F2],3.2 ± 0.44,3.32 ± 0.68,,
EEHGLQQERPRPEPGRLGSSSPAS [PXN],5.25 ± 0.43,5.1 ± 0.15,,
SNVRGSLNVNLNSVVLRRARGGAV [DUSP5],3.74 ± 0.24,4.1 ± 0.29,,
QRAQAEVLQSVRELSRSRKLYGQR [FCHSD1],3.76 ± 0.2,3.85 ± 0.36,,
FYQAVRDLLPVWLLEDMRASEAFH [ANKRD9],2.85 ± 0.47,2.59 ± 0.57,,
ETYKMEFMYSGVENKQVVIIHHMR [INTS4],2.72 ± 0.56,2.46 ± 0.47,,
DDLMGILCKSVLEIERAIKQTQCP [FEM1C],2.07 ± 0.22,2.46 ± 0.29,,
LKSAKDLPPDALIIEYRGKFMLRE [KMT2E],2.15 ± 0.4,2.38 ± 0.43,,
MMMMGPKEEEQSCEYETRLPGNHS [ZNF232],4.51 ± 0.48,4.64 ± 0.4,,
LELHDYHDIIKHPMDLSTVKRKMD [BRD3],4.05 ± 0.19,3.98 ± 0.34,,
IYSVVDLGMYQKVTSYCRSATLVG [SLC19A2],2.69 ± 0.42,2.74 ± 0.69,,
WLISEEEKTQKNQCWKSLFIDTYS [FBXO3],2.16 ± 0.3,2.45 ± 0.33,,
QLQLKIIEIEDEAEKWQKEKDRIK [TRIM29],3.35 ± 0.24,3.6 ± 0.36,,
VCQRMLNQGFLKVERYHNLCQKQV [FBXO28],2.18 ± 0.36,2.37 ± 0.27,,
NAAHSLLSTNDKTIKLWKITERDK [PPP2R2C],3.68 ± 0.085,3.82 ± 0.27,,

Sequence,protein stability index [1],protein stability index [2],protein stability index [3],protein stability index [4]
LPRKRQSLRSSSSKLAQLTLEQIL [INTS3],2.34 ± 0.19,2.44 ± 0.12,,
IQWKNHDQNNHNTDRSSHKDSMN [EDNRA],,,5.36 ± 0.29,5.49 ± 0.23
QRDGSKSEDELDQASTPTDVRDID [CCND2],5.62 ± 0.16,5.62 ± 0.14,,
NNQSDLEKEMQKMNPYKIDIGAVY [PRIM1],3.03 ± 0.24,3.03 ± 0.16,,
VHNIVIFMRTSVKISYIGLMTQSS [TMEM106C],2.83 ± 0.38,3.03 ± 0.32,,
DEASAATPPSSRRVWSPPRVHKVE [ZBTB22],5 ± 0.073,4.99 ± 0.15,,
ALRNLPPLRAAHRRFNFDTDRPLL [SMG5],2.72 ± 0.21,2.85 ± 0.45,,
IKPPCIPNGKENFSGGTSLWQNI [CAMK2D],,,3.2 ± 0.13,3.2 ± 0.21
LPVETLGPASRMDPESERALQAPH [PBXIP1],4.58 ± 0.43,4.84 ± 0.33,,
DERTHRSDRPFKCNQCGKCFIQSS [ZNF8],2.98 ± 0.42,3.25 ± 0.47,,
VEFNHTGELLATGDKGGRVVIFQR [PPP2R2C],2.54 ± 0.59,2.85 ± 0.44,,
QAYLDDCHRRYSCAHCRAHLANHD [YPEL3],2.68 ± 0.43,2.45 ± 0.39,,
QRFHEICSNLVKTRRRAVGWWKRL [ARL6IP1],2.22 ± 0.41,2.55 ± 0.62,,
RAAAAAAVAAATAAVEGSGGSGGG [KCNA4],4.88 ± 0.26,4.9 ± 0.28,,
RSPRAGAGALLRLPSERLDFSMAE [PRPH],4.17 ± 0.17,4.21 ± 0.29,,
NPKDCSENIEVKEGGLYFERRPVA [SPSB2],4.68 ± 0.17,4.76 ± 0.058,,
DEISDHAKVLTLSDDLERTIEERV [EIF5],5.16 ± 0.28,5.44 ± 0.11,,
IDEQDSYIQSRADTMQNIESTIVE [STX5],5.23 ± 0.31,5.14 ± 0.12,,
TEDVGVVCSDKRIPGFKFDNSLIN [LOXL2],3.76 ± 0.28,3.75 ± 0.3,,
QDEEDMFMVVDLLLGGDLRYHLQQ [STK32A],2.21 ± 0.18,2.1 ± 0.35,,
CAGPLEDAVTIPCGHTFCRLCLPA [TRIM15],2.69 ± 0.21,2.67 ± 0.37,,
KRTIIPTLVEAIKEQDGREVDWEY [DFFB],4.14 ± 0.11,4.36 ± 0.42,,
PSLRPRPASSISLPIGHLGCISLL [DMRTC1],2.55 ± 0.35,2.85 ± 0.43,,

Sequence,protein stability index [1],protein stability index [2],protein stability index [3],protein stability index [4]
ARGDAVCTACGSVLEDNIIVSEVQ [BRF1],4.38 ± 0.19,4.34 ± 0.077,,
NSTGGDCFYRGYTSGVAAVQDWYH [SCNN1D],2.36 ± 0.16,2.43 ± 0.5,,
RGDSGRLGLGTRESHSCPQQVPMP [NEK8],4.07 ± 0.18,4.19 ± 0.28,,
SRMKFRGNGALSNISDLPFLAENS [LCOR],3.32 ± 0.31,3.47 ± 0.27,,
LKVGGILVMPLEEKLTKITRTGPS [PCMTD2],2.4 ± 0.21,2.16 ± 0.41,,
MRHIRFLKNEVERLKKQLRAAQLQ [CCDC6],2.31 ± 0.25,2.23 ± 0.25,,
RHCPYLDTINRSVLDFDFEKLCSI [USP39],2.61 ± 0.23,2.56 ± 0.3,,
EPHSLLHLSRLCVRHNLGDTRLGQ [SPSB2],3.44 ± 0.18,3.35 ± 0.19,,
AAPLPERNSLSAIFNNVMTLCAML [SLC29A1],2.57 ± 0.14,2.57 ± 0.31,,
GLAFIAFTEAMTHFPASPFWSVMF [SLC6A17],3.15 ± 0.1,3.13 ± 0.51,,
DQNTVVTRQLSEENANLQEYVEKE [MTUS2],5.41 ± 0.25,5.51 ± 0.21,,
QEMQQKLVELSAENEKLHQRVEQL [CEBPD],4.84 ± 0.1,4.74 ± 0.54,,
KDIQPYMRRMVATWMLEVCEEQKC [CCND2],2.33 ± 0.24,2.65 ± 0.3,,
FHKQQWFNCIRAAIAPFQSAGSPP [NET1],2.69 ± 0.58,2.5 ± 0.3,,
MDGRWQCSCWAWFLLVLAVVAGDT [ADAMTSL2],2.62 ± 1,2.45 ± 0.52,,
IHERTHERERLYPFSECGEAVSDS [ZNF263],4.81 ± 0.41,4.88 ± 0.22,,
PPELTASRQSFRMAMGNPSEFFVD [DVL3],4.17 ± 0.21,3.83 ± 0.21,,
VYHSYDLPWFRTLSWYFLLCVNYF [CDS1],2.85 ± 0.42,2.63 ± 0.51,,
SLFSLLIAAAVYIMDTVGNIWVCY [SLC19A2],2.94 ± 0.41,3.03 ± 0.72,,
NYMKILLKVGGILVMPIEDQLTQI [PCMTD1],3.08 ± 0.75,2.88 ± 0.8,,
ALVQEKIQKRNQRQSGDRRQLPPP [WAS],4.31 ± 0.24,4.59 ± 0.086,,
SVPIDLQKVDQFDPFTVPTISFIC [PRIM1],2.55 ± 0.44,2.48 ± 0.74,,
LVNTSENLSKSRKILRSMSRKVTT [VTI1B],3.33 ± 0.29,3.57 ± 0.22,,

Sequence,protein stability index [1],protein stability index [2],protein stability index [3],protein stability index [4]
CDLADRELVVIIGWAKHIPGFSTL [ESRRG],2.92 ± 0.76,3.05 ± 0.56,,
KICESLNVPVDDSLVKELLRMCSH [EFHC1],2.11 ± 0.21,2.09 ± 0.44,,
LGNGNDKKEMNKSDLNTNNLLFKP [KMT2E],4.65 ± 0.25,4.34 ± 0.32,,
REHKETCEMDWSDKMEAYNIDETC [TEKT4],5.26 ± 0.19,5.14 ± 0.077,,
NIRSARGNNPNGREAKMICFKSVA [ELOA2],3.4 ± 0.15,3.34 ± 0.27,,
RAILKPRKVCVGGKRRKDEISVDS [PPP2R2B],3.85 ± 0.19,4.1 ± 0.12,,
QQVPMPPGQEAQRVVCGIDSSMIL [NEK8],3.39 ± 0.29,3.5 ± 0.33,,
DRLVVTECQLTHSHPACPLEFAYY [ZSWIM9],2.53 ± 0.31,2.53 ± 0.32,,
SSQGVATPAITVSNSCPAELPNIK [TFE3],5 ± 0.11,4.96 ± 0.24,,
VYMFKNGSGDSGDSSEEESHRVVL [LYSMD4],3.49 ± 0.32,3.33 ± 0.38,,
NIPFFPDLQITDQVALLRLTWSEL [NR2F2],2.68 ± 0.45,2.12 ± 0.58,,
HNIVFGDYTWTEFDEPFLTRNVQS [TRIP13],2.63 ± 0.06,2.61 ± 0.32,,
RDMNGKSLDGKAIKVEQATKPSFE [RBMX],5.08 ± 0.24,5.24 ± 0.27,,
FFPMGDEGASSQIGRAAGTGFTVN [HDAC6],3.46 ± 0.17,3.69 ± 0.15,,
LKNKCCPPPCKFGEGKLSKRLKHK [C22orf31],3.49 ± 0.21,3.74 ± 0.48,,
RCPVTVCGDVHGQFHDLMELFRIG [PPP2CA],2.2 ± 0.35,2.24 ± 0.14,,
DIGAVYSHRPNQHNTVKLGAFQAQ [PRIM1],3.11 ± 0.41,3.19 ± 0.45,,
DSDVPEQRDSKCKVKWTHEEDEQL [MYBL2],5.44 ± 0.32,4.94 ± 0.76,,
TQSWSSQSSFNSLQRVPSYDSFDS [ETS1],4.06 ± 0.2,3.98 ± 0.22,,
MRMSDTVTVKDETATMKDLEAEVK [R3HDM1],5.46 ± 0.072,5.37 ± 0.092,,
